{"source": "the Human Domainome abundance scans (Beltran et al. 2025)", "parents": {"B1": {"name": "SWI/SNF complex subunit SMARCC2, residues 599 to 641; numbered along this chain, Q8TAQ2 (parent)", "chain": "REWTEQETLLLLEALEMYKDDWNKVSEHVGSRTQDECILHFLR"}}, "note": "± gives the uncertainty stated by the source."}
{"variants_of": "B1", "assay": "abundance fitness (aPCA) (normalised: wild type 0, dead -1); higher = more abundant; growth selection in yeast, the domain comes from the species named", "settings": "Homo sapiens"}
{"variant": "REWTEQETLLLLEALEMYKDDWNKVSEHVGSRTQDECILIFLR", "note": "[H40I]", "abundance fitness": "-0.431 ± 0.1"}
{"variant": "REWTEQETLLLLEAREMYKDDWNKVSEHVGSRTQDECILHFLR", "note": "[L15R]", "abundance fitness": "0.454 ± 0.06"}
{"variant": "REWTEQETLLLLEALEMYKDDWNKVSEHVGSRTCDECILHFLR", "note": "[Q34C]", "abundance fitness": "0.104 ± 0.088"}
{"variant": "REWTEQETLLLLEALEMYKDDWNKVSEHVGSRTQDVCILHFLR", "note": "[E36V]", "abundance fitness": "-1.15 ± 0.2"}
{"variant": "REWTEQETLLLLEALEMYKDDKNKVSEHVGSRTQDECILHFLR", "note": "[W22K]", "abundance fitness": "-0.367 ± 0.15"}
{"variant": "REWTEQETLLLWEALEMYKDDWNKVSEHVGSRTQDECILHFLR", "note": "[L12W]", "abundance fitness": "-0.145 ± 0.1"}
{"variant": "REWTEQETLLLKEALEMYKDDWNKVSEHVGSRTQDECILHFLR", "note": "[L12K]", "abundance fitness": "0.204 ± 0.26"}
{"variant": "REWTEQETLLLLEALEMYSDDWNKVSEHVGSRTQDECILHFLR", "note": "[K19S]", "abundance fitness": "-0.287 ± 0.065"}
{"variant": "REWTEQETLLLLEALEMYKDDWNKSSEHVGSRTQDECILHFLR", "note": "[V25S]", "abundance fitness": "-0.528 ± 0.11"}
{"variant": "REWTEQETLLLLEALRMYKDDWNKVSEHVGSRTQDECILHFLR", "note": "[E16R]", "abundance fitness": "0.062 ± 0.06"}
{"variant": "REWTEQETLLLLEALEMLKDDWNKVSEHVGSRTQDECILHFLR", "note": "[Y18L]", "abundance fitness": "-0.731 ± 0.14"}
{"variant": "REWTDQETLLLLEALEMYKDDWNKVSEHVGSRTQDECILHFLR", "note": "[E5D]", "abundance fitness": "-0.692 ± 0.32"}
{"variant": "REWTEQETLLLLEANEMYKDDWNKVSEHVGSRTQDECILHFLR", "note": "[L15N]", "abundance fitness": "-0.017 ± 0.13"}
{"variant": "REWTEQETLLLLEALEMYKDDWNKVSEHVGSRTQDECIEHFLR", "note": "[L39E]", "abundance fitness": "0.335 ± 0.073"}
{"variant": "YEWTEQETLLLLEALEMYKDDWNKVSEHVGSRTQDECILHFLR", "note": "[R1Y]", "abundance fitness": "0.033 ± 0.095"}
{"variant": "REWTEQETLLLLEALEMYKDDWNKVSEHVGSRTQDEDILHFLR", "note": "[C37D]", "abundance fitness": "-0.471 ± 0.22"}
{"variant": "REWTEQETLLLLEALEMYKDDWNKVSEVVGSRTQDECILHFLR", "note": "[H28V]", "abundance fitness": "-0.322 ± 0.097"}
{"variant": "REWTEQETLLLLEALEMYKDPWNKVSEHVGSRTQDECILHFLR", "note": "[D21P]", "abundance fitness": "-0.919 ± 0.16"}
{"variant": "REWTEQEGLLLLEALEMYKDDWNKVSEHVGSRTQDECILHFLR", "note": "[T8G]", "abundance fitness": "0.156 ± 0.093"}
{"variant": "REWMEQETLLLLEALEMYKDDWNKVSEHVGSRTQDECILHFLR", "note": "[T4M]", "abundance fitness": "0.142 ± 0.12"}
{"variant": "REWTEQETLLLLEALEMYKDDWNKVSEHVGSRTQDECIIHFLR", "note": "[L39I]", "abundance fitness": "-0.21 ± 0.31"}
{"variant": "REWTEQETLLLLEALEMYKDDWNKMSEHVGSRTQDECILHFLR", "note": "[V25M]", "abundance fitness": "0.026 ± 0.07"}
{"variant": "REWTEQETLLLLEALEMYKDDWNKVSEHRGSRTQDECILHFLR", "note": "[V29R]", "abundance fitness": "-1.09 ± 0.17"}
{"variant": "REWTEQETLLLLEALEMYKDDWNKVSEHVGSRKQDECILHFLR", "note": "[T33K]", "abundance fitness": "0.042 ± 0.2"}
{"variant": "REWTEQETLLLLEALEMYKDDWNKVSEHCGSRTQDECILHFLR", "note": "[V29C]", "abundance fitness": "-0.635 ± 0.2"}
{"variant": "REWTEQETLLLLEALEVYKDDWNKVSEHVGSRTQDECILHFLR", "note": "[M17V]", "abundance fitness": "-0.017 ± 0.079"}
{"variant": "REWTEQETLGLLEALEMYKDDWNKVSEHVGSRTQDECILHFLR", "note": "[L10G]", "abundance fitness": "-0.171 ± 0.1"}
{"variant": "REWTEQETLLLLEALEMYKDDWNKVSEHVGSRTQDECELHFLR", "note": "[I38E]", "abundance fitness": "0.351 ± 0.19"}
{"variant": "REWTEQETLLLLEALEMYKDDWNKVSEHVGLRTQDECILHFLR", "note": "[S31L]", "abundance fitness": "-0.49 ± 0.18"}
{"variant": "REWTEQETLLLLEALEMYKDDWNKVSEHVGSRTQDECILTFLR", "note": "[H40T]", "abundance fitness": "-0.27 ± 0.099"}
{"variant": "REWTEQETLLLLEALEMYKDDWNKVSEHVGSRTQDECILHFFR", "note": "[L42F]", "abundance fitness": "0.139 ± 0.067"}
{"variant": "GEWTEQETLLLLEALEMYKDDWNKVSEHVGSRTQDECILHFLR", "note": "[R1G]", "abundance fitness": "0.142 ± 0.057"}
{"variant": "REWTEQETLLLLEALEMYKDDWNKVSEHVGSRTQDECILHFRR", "note": "[L42R]", "abundance fitness": "0.589 ± 0.057"}
{"variant": "REWTEQETLLLLEALEMYKDDWNKVSEHVGSRTQDECINHFLR", "note": "[L39N]", "abundance fitness": "0.024 ± 0.12"}
{"variant": "HEWTEQETLLLLEALEMYKDDWNKVSEHVGSRTQDECILHFLR", "note": "[R1H]", "abundance fitness": "-0.26 ± 0.23"}
{"variant": "REWTEQETLLLLEALEMYKDDWNKVVEHVGSRTQDECILHFLR", "note": "[S26V]", "abundance fitness": "0.071 ± 0.064"}
{"variant": "MEWTEQETLLLLEALEMYKDDWNKVSEHVGSRTQDECILHFLR", "note": "[R1M]", "abundance fitness": "0.298 ± 0.12"}
{"variant": "REWTEQETLLLLEALEMYKDDWNKVSEHVGTRTQDECILHFLR", "note": "[S31T]", "abundance fitness": "0.287 ± 0.078"}
{"variant": "REWTEQETLLLLEALEMYKDDWNKVSEHVGSRTQDECILHLLR", "note": "[F41L]", "abundance fitness": "-0.487 ± 0.072"}
{"variant": "REWTEQETLLLLEALEMYKDDWNKVSEHVGSRTFDECILHFLR", "note": "[Q34F]", "abundance fitness": "-0.029 ± 0.074"}
{"variant": "REWTEQETLLLLEALEMYKDDWYKVSEHVGSRTQDECILHFLR", "note": "[N23Y]", "abundance fitness": "-0.285 ± 0.086"}
{"variant": "REWTEQETLLLLAALEMYKDDWNKVSEHVGSRTQDECILHFLR", "note": "[E13A]", "abundance fitness": "-0.028 ± 0.081"}
{"variant": "REWTEQETLLLLEALEMYKDDWNKVSEHVGSRTQDLCILHFLR", "note": "[E36L]", "abundance fitness": "-1.02 ± 0.34"}
{"variant": "REWTEQETLLLLEALEMYKDHWNKVSEHVGSRTQDECILHFLR", "note": "[D21H]", "abundance fitness": "-0.408 ± 0.084"}
{"variant": "REWTEQETLLLLEALEMYKDDWNKVSEHVGSRTQDECYLHFLR", "note": "[I38Y]", "abundance fitness": "0.077 ± 0.092"}
{"variant": "REWTEQETLLLLEALEMYKDDWNKVSEHVGSRTQKECILHFLR", "note": "[D35K]", "abundance fitness": "0.047 ± 0.34"}
{"variant": "REWTEQETLLLLEALEMYKDDWNKVSEHVGSRTQMECILHFLR", "note": "[D35M]", "abundance fitness": "0.008 ± 0.21"}
{"variant": "REWTEQETLLLLEALEMYLDDWNKVSEHVGSRTQDECILHFLR", "note": "[K19L]", "abundance fitness": "-0.458 ± 0.065"}
{"variant": "REWTEQETLLLLWALEMYKDDWNKVSEHVGSRTQDECILHFLR", "note": "[E13W]", "abundance fitness": "-0.697 ± 0.19"}
{"variant": "REWTEQETLLLLEALEMYVDDWNKVSEHVGSRTQDECILHFLR", "note": "[K19V]", "abundance fitness": "-0.256 ± 0.058"}
{"variant": "REWTEQETLLLLEALEMYKDDWNKVSEHVGSRTQDECDLHFLR", "note": "[I38D]", "abundance fitness": "-0.015 ± 0.1"}
{"variant": "REWTEQFTLLLLEALEMYKDDWNKVSEHVGSRTQDECILHFLR", "note": "[E7F]", "abundance fitness": "-1.44 ± 0.41"}
{"variant": "RHWTEQETLLLLEALEMYKDDWNKVSEHVGSRTQDECILHFLR", "note": "[E2H]", "abundance fitness": "0.287 ± 0.074"}
{"variant": "REWTEQETLLLLEALETYKDDWNKVSEHVGSRTQDECILHFLR", "note": "[M17T]", "abundance fitness": "-0.054 ± 0.12"}
{"variant": "REWTEQETLLLLEALEMYKDDWNKVSEHVGSRTQVECILHFLR", "note": "[D35V]", "abundance fitness": "-0.556 ± 0.13"}
{"variant": "REWTEQETLLLLMALEMYKDDWNKVSEHVGSRTQDECILHFLR", "note": "[E13M]", "abundance fitness": "-0.222 ± 0.099"}
{"variant": "REWTEQETLLLLEALEMYKDDWNKVSEHVGSTTQDECILHFLR", "note": "[R32T]", "abundance fitness": "-0.49 ± 0.097"}
{"variant": "RPWTEQETLLLLEALEMYKDDWNKVSEHVGSRTQDECILHFLR", "note": "[E2P]", "abundance fitness": "0.278 ± 0.12"}
{"variant": "REWTEQETLCLLEALEMYKDDWNKVSEHVGSRTQDECILHFLR", "note": "[L10C]", "abundance fitness": "-0.057 ± 0.15"}
